Test results: paper PMC7934860, “Acetylation of muscle creatine kinase negatively impacts high-energy phosphotransfer in heart failure” (JCI Insight, 2021)

Key:
[1] = molecular target: the molecule itself; assay: native gel or EMSA; murine cardiac lysates of sham and TAC hearts (50 mM potassium phosphate, 1 mM EDTA, 1 mM beta-mercaptoethanol, pH 7.4, 0.1% Triton X-100) on 10% native-PAGE at 4°C, blotted with anti-CKM; dimer to monomers
[2] = molecular target: the molecule itself; assay: native gel or EMSA; CKM enriched from TAC-stressed mouse hearts, incubated with or without Sirt2 in vitro, then native-PAGE and anti-CKM blot; dimer to monomers
[3] = molecular target: the molecule itself; assay: native gel or EMSA; human rCKM, nonacetylated or in vitro acetylated, on 10% native-PAGE at 4°C (running buffer 50 mM Tris-Base, 50 mM MOPS, 0.0375% SDS, pH 7.8), blotted with anti-CKM; dimer and monomer bands by densitometry; dimer to monomers
[4] = molecular target: the molecule itself; assay: cross-linking; quantitative crosslinking MS (XL-MS) with the PIR crosslinker BDP-NHP on rCKM: control, acetylated, and Sirt2-deacetylated; links mapped to PDB 1U6R

B1: Murine CKM in cardiac lysates of sham and TAC-stressed hearts (enzyme)
chain: not shown
modifications: lysine acetylation, significantly higher in the failing (TAC) hearts
notes: creatine kinase M-type (CKM), mouse (129S1/SvImJ); Sham and TAC hearts are kept as one molecule; the treatment is named in the rows; also called muscle CK isoform; source: endogenous, mouse heart lysate (sham and TAC, 12 weeks)
fold decrease of the dimer content, TAC against sham hearts [1]: 1.4 fold
fold increase of the monomer, TAC against sham hearts [1]: 2.8 fold

B2: CKM enriched from TAC-stressed mouse hearts, deacetylated in vitro by Sirt2 (enzyme)
chain: not shown
modifications: lysine acetylation of failing-heart CKM, reduced by Sirt2
notes: creatine kinase M-type (CKM), mouse (129S1/SvImJ); also called enriched CKM from TAC-stressed hearts + Sirt2; source: enriched from TAC mouse hearts (Blue Sepharose, Deae Sephadex A-50), then incubated with Sirt2
fold decrease of the monomer against enriched TAC CKM without Sirt2 [2]: 3.5 fold

B3: Human recombinant creatine kinase MM (rCKM), nonacetylated (enzyme)
chain: not shown
notes: creatine kinase M-type (muscle form, CKM), human; 381-amino acid polypeptide; The rows are of the chain with itself (MM homodimer); also called Human CK MM; CK muscle form; source: bought: R & D Systems (catalog 9070-CK) and Abcam (catalog ab73652)
stoichiometry N [3]: 2

B4: Human recombinant CKM, in vitro acetylated (enzyme)
chain: not shown
modifications: acetyl-lysine at several lysines after in vitro acetylation (lysine residues 11, 32 and 196 are named; full list in Figure 5D)
notes: creatine kinase M-type (muscle form, CKM), human; 381-amino acid polypeptide; Same protein as m1 after in vitro acetylation; also called acetylated rCKM; in vitro acetylated rCKM
fold decrease of the dimer band against nonacetylated rCKM [3]: 2.1 fold
fold increase of the monomer band against nonacetylated rCKM [3]: 5.6 fold
fold reduction of the homodimer crosslink K11-K11 against control rCKM [4]: 2 fold
fold reduction of the homodimer crosslink K196-K196 against control rCKM [4]: 9 fold

B5: Human recombinant CKM, in vitro acetylated and then deacetylated by Sirt2 (enzyme)
chain: not shown
modifications: acetyl-lysines removed in part by Sirt2 (lysine residues 11, 32 and 196 robustly deacetylated)
notes: creatine kinase M-type (muscle form, CKM), human; 381-amino acid polypeptide; Same protein as m2 after the in vitro deacetylation reaction; also called Sirt2-treated rCKM; Sirt2 deacetylated rCKM
fold increase of the homodimer crosslink K11-K11 against acetylated rCKM [4]: 1.3 fold
fold increase of the homodimer crosslink K196-K196 against acetylated rCKM [4]: 1.8 fold
